Assay: label from the status in PepcDB records

Sequence | protein production
MKLPLIMLTALIALTACTSSSTGRKQVMLFSDAELDKMGAASFEDMKKKTPISTDKATNDFVQCVAKSITKNVAKSVHQGDWEVVVFDSAQVNAFALPSGKIGVYTGILNVTENQDQLGAIIGHEVGHVIEHHSNERLSANKLQNMGMAAATAAVGLSDVENKGLWMAGLGLGLQYGVIMPYSRAHESEADIVGQDLMARSGFEPSASIKLWQNMAKLSKGAPAEFMSTHPSNKTRINQLTEHLPSAMTLYKTDSRPNCQKPKVIPSPKA | failed
MKLRYLNILKEKLGREPTFVELQAFSVMWSEHCGYSHTKKYIRRLPKTGFEGNAGVVNLDDYYSVAFKIESHNHPSAIEPYNGAATGVGGIIRDVLAMGARPTAIFDSLHMSRIIDGIIEGIADYGNSIGVPTVGGELRISSLYAHNPLVNVLAAGVVRNDMLVDSKASRPGQVIVIFGGATGRDGIHGASFASEDLTGDKATKLSIQVGDPFAEKMLIEAFLEMVEEGLVEGAQDLGAGGVLSATSELVAKGNLGAIVHLDRVPLREPDMEPWEILISESQERMAVVTSPQKASRILEIARKHLLFGDVVAEVIEEPVYRVMYRNDLVMEVPVQLLANAPEEDIVEYTPGKIPEFKRVEFEEVNAREVFEQYDHMVGTDTVVPPGFGAAVMRIKRDGGYSLVTHSRADLALQDTYWGTLIAVLESVRKTLSVGAEPLAITNCVNYGDPDVDPVGLSAMMTALKNACEFSGVPVASGNASLYNTYQGKPIPPTLVVGMLGKVNPQKVAKPKPSKVFAVGWNDFELEREKELWRAIRKLSEEGAFILSSSQLLTRTHVETFREYGLKIEVKLPEVRPAHQMVLVFSERTPVVDVPVKEIGTLSR | not failed
MKLSIVIVNYRVPYFLEQCLLSVRKSAQGIDTEVWVVDNNSGDGSVEYLQSRFPEVHFVANEENVGFSRANNQAIRLSKGQYVLLLNPDTLIGESTLRTVVDFMDSKPNAGGLGVKMLNGHGRFLPESKRGFPSPWVSFCKLSGLNRLFPHSSRFNRYHLSYLSRDEVHKVEVLSGAFMLMRREALDKVGLLDERFFMYGEDIDLSYRLILGGYDNYYYPTPILHYKGESSSVSDVKYLRSFYGAMGLFFDKYYRNRMNPLLHGLINVVIKARTALALMLRSLRKVPAAEKPAKIFYWHPSEGEAAISAYHDRSHILINTDEVTCDRLLLTMEKLADRKHTFHLTNDTTKRVISP | failed
MKLTDRLLKIASLVSDGKKIADIGTDHGYIPVYLLKEGKVPFAVLADVNKGPLDNAHKEVIQNNLLDKVDLRLGSGIEILEIGEVEEVIIAGMGGILISELLEAKKEVAHNVEKLILQPMQAQEELRYYLLNNGYEILEEVLVREDFRIYEIIVAKYTGKNTIIEDEIYYEVGIKLLENKDSLFNDFIEKKIKTYSSIVNKLEGKNGEAIDKKRKESEVAIKKLENLIK | not failed
MKLTIPTWLTLLRIVMIPVLVVVFYLPYTWTNFASAGVFALAAITDWLDGWVARRYHQYSAFGAFLDPVADKLMVAVALFLIVQGHPTPWMAFWAAVIVGREIAVSALREWMAEIGQRAKVRVAAIGKIKTTAQMVALLCLLYSVTPGQMPTHEIWLGNLIFRAGYWTLAIAALLTLWSGFQYLQAAWPSLRADEKAAISNKPKKIESNS | failed
MKLTLKNLSMAIMMSTIVMGSSAMAADSNEKIVIAHRGASGYLPEHTLPAKAMAYAQGADYLEQDLVMTKDDNLVVLHDHYLDRVTDVADRFPDRARKDGRYYAIDFTLDEIKSLKFTEGFDIENGKKVQTYPGRFPMGKSDFRVHTFEEEIEFVQGLNHSTGKNIGIYPEIKAPWFHHQEGKDIAAKTLEVLKKYGYTGKDDKVYLQCFDADELKRIKNELEPKMGMELNLVQLIAYTDWNETQQKQPDGSWVNYNYDWMFKPGAMKQVAEYADGIGPDYHMLIEETSQPGNIKLTGMVQDAQQNKLVVHPYTVRSDKLPEYTPDVNQLYDALYNKAGVNGLFTDFPDKAVKFLNKE | not failed
MKLVKNLEIVESIFGDWDETIIWSCVQGIMGEVFVDSLDQPKSSLAKLGRKSSFGFLAGQPTLFLLEVCSGEDIILVPQHKGWSDLIESTYGQNAHSFKRYATKKDTLFERSRLEKFVTQLPNGFELRAIDEKVYNSCLEKEWSQDLVANYATYQYYKKQGIGYVVYYQGNIIAGASSYSTYKNGIEIEVDTHPDFRRRGLATIVAAQLILTCLDKGIYPSWDAHTRTSLNLSEKLGYEFSHEYIAYEID | failed
MKLVLEGVDSFETLRVVGTFNCIDPDYVGSKRVTKKADVYAFEVILMELITGRKANYETLSVDEQNLVMWLRPKIKISTFLNLVDGTIATDKETIKRIKKIAKLAEYCTSQEVESRPLRASRTKSGNEVTSED | failed
MKLVNVTNSYKQLVNKQLENTDAYFVKVYSAGNTTAVYSEAAHHVEVLIMNKNRRIRPTEVKEILAKLLKRLPKEAYDPDEISIIELNHVTEVSVPLKVSLME | failed
MKLVVVSAGLSVPSSTRLLADRLAKATAARVPAEVEVVELRDLAVEIAHNFTNGFPGRALAAAIGAVTEADGLIVVTPVFSASYSGLFKSFFDVLEQGVLAGKPVLIAATGGSARHSLVLEHALRPLFAHLRAVVVPTGVYAASEDWGAEGLAERIERAAGELAGLMTGLMSGVSAVGPARDAQPRAGAEVSADGPAAAPAEGSVPRPRETVAQSATAGRGSRTDGFQVVPFEQQLAALRTR | failed
MKMDTGALTFQQKIYWLVKQIPLGRVATYGQIAALCGWPRHGRYVGYALYRVAPNSDIPWHRVVNAQGKISYAPQRRGTDELQRWRLAAEGIIFTAGDRINLRRYQWQPPATVYQQLIWPEGAATDSAKALEHHHHHH | not failed
MKMKILGISFGTKNGNNDTMCKVALKGAKEAGAEVEFIQMSSINIKHCTGCCACVKTLLSGKGSMCVLKDDFEWLLDKMKDADGIVVSDPIFEEGASGLFHTIMDRFGPRADRGNNIIGTKVAEAIGGKIPDSRMLNDKVISFMGIGGSDWGTRVQCEHAMLALIPMWKVIDNAWFPWAKELVMDDTRLVQVHQIGLNIVEAAKDFEKASYQGEEGVCPHCHNRLFYLEPGTKKAICALCGIVGELDTISGKTIFSFPEEQLGHAHDTLPGKFIHGDDIKKMEGHYAEVRKTQEFKERKTSYNFIETLTKEKQAGLEHHHHHH | failed
MKNDTAALAADIVDFWKKAGPDKWFDKDAAFDNHFHDRFRDAHFAAARRELDGWLEGAESSLALMLLLDQFPRNCFRGTAHMYATDPLARFFADEAIRRGHDQAVSEDLRVFFYLPFSHAEDIAAQQRACDLNQPLGGLYLHHAEEHRDIVERFGRFPHRNGILLRETTPEERQYLEEGGFSG | not failed
MKNICFINGSPRSKKANSTLYLNLIDKSLDSKNYTKYYIDTTSSIKGDLESTFKTLLDADYIILAFPLYVYSMPSLLVRFLEDYYIYLKNKDTISQKTNLYAVVNCGFPDAKMNVEALKIVFNCCKKLNINFRFGIGIGAGEFVNFSKNNPLLNKLSSCVYKSINKITYDIENQVSIEINNIFVNPKIPRRLFFIFGHIFWKKWAKRNGIKISALFDKPLEHHHHHH | failed
MKNILPLMWVIILMFVISQGVSAKGKKEIPKSEYGSYIVIMDLNPAIAYEGDIKGFKATKPGKNKKINPKSANVRKYTSMLSKTHDAALAKANVKSKDKVHDYGIALNGFSAKMTHEQAVALSSQDGVAKVMPDVLRQKMTDNSPSFLDLGGPAGPWLKGYDGEGIVIGVIDTGIWPEHPSFTDDGSYSTPPILLDDSRPNCEFGNTGHRPDDVAFSCNNKLIGARQMLDTYRLIVGATSDEFDSARDEDGHGTHTSSTSGGNANVPANMLGNDYGLISGIAPRAHIVMYKGLGDLGGFGSDLAAAIDQAVADGVDVINYSIGSSSFAIGPDDVAFLFAENAGVFVATSNGNSGPAPATTGSPASTPWVTSVGASTQNRTYQGSASSVGEWEFFGASITAGTAELALIDSAEAGSELCIPGVLDPVAVAGKIVLCLRGAIARVDKSKAVNIAGGAGMILYNANDGESQVTDSHWVPSVHINNTDGLVIKGYISNDASTAVAQIMGGTYTEIDAPSMAGFSSRGPNLLSGDIIKPDVTAPGVNIIAGQTPASEGRGELFQMISGTSMSSPHVAGLFAMIKQAHPNWSPSTAKSALMTTAYQDVMKEDEATPADAFDMGAGHVNPGGKANKGSIFEPGLAYQAGLFEYAAYSCGAELGIFSPGTCGFLESLGIPTDPANLNLPSIGIANVIGSKTVYRSVTGVAKDSGWRTYSVDVDAPAGYEVSVLPASIKLKSGMSATYAVTITNTASPAGEWAHGSITWRDSNDHYSVYSPIAVKGALFEAPANITGSSETGSASIDVTFGYTGDYTASGYGLTAATVDIDSVVQDPDQIFDPGDTFSNAHAIVVSGAAYLRIAIPGVADPNADLDIFLLDSVGNIVGVSANGGTDELIEMELPGDDTYTLWVHGWSAPGGSTDYELYSWVVPMASGSLTVASAPSSATLGATETIGVDWTGATNGKWHFGVIGHSDAGGLIGATLVEVDNR | failed
MKNKFIFITVVSILLIAAGIFTTIAMANANSVVVKAEVLNVRSGPGLAYDVTSQARKNEVLRVVGEENQWYKVQLDNGNSGWVASWLVENTDVSAASNSIAIVSSDGGLNVREKPSTSSTSLGLLNNGDQVTVTSQQNGWAQIQYNGKSAWVSSQYLTIRESVTKVDESELQTVTIRDDSTNIRNKPGRDGAVIEKANSGQGFAIQGVQGDWYKIRTTSGEEGYVANWVVDVSDKGQTSSPRSKTTKLSEATIVIDPGHGGNDPGAKGANGTIEKEMTLKTAKKLKEKLESRGAKVILTRNSDKYVSLKSRTNVAAENKADVFISIHFDSLEDSSKGVSGQTTYYYDNSDKSLAESINTTLGNDLPTTNRGSRVGDYYVVRENSQPAVLLELGYLSSAKDERNINSASYRSQIADSVTDGLSNYFSN | failed
MKNKSYYFLTIIRYAVYLLIGMCAVFYGELKNTEMYYFIVFFLMYIIVTQFRIYYLRNRKYVSVSMVVDLVLVCFMYSYVRNFSFLFLFISVLDSSIMLSKTQAYASGIICSVVIIIQNVKIPFSLKAGTNLINILFSILLIFTLVFIGDSFREEQKRKIEAQGLYDRLRESEEKLRGAYEKLERYSETVEELSILRERNRISREIHDSVGHTLSAVLMQLQALLYLIKSDKEESLKTVEEMTGFVRGGIENVRRTVRELKPTDFDRFEGVFAIEEMIRKYKKLTSADIRFILSKEKRSLSSDESFISYRVVQEALNNAIRHGKASLVEVSMQFNQDRLYIRIKDNGVGTDGIKKGFGMTGMEERVKKLGGNIEFYSERDKGFEVTVNLPKSSEEKNSIINY | failed
MKNKTYYLSIIFTSLVCLFLFTKALGFILWINGAPIDKWVAWVGLFAIPIFIYYSFPGRSLKKTQKIVTIVIIIVQIIWLKWAINQSKYYVYVNSNNILPSPYIIQETPNSNTPISLGQRLLTNYTFYKSIHSYLYVRENVTKSDRGIVDWIKHFDSEIKEEEDDGRIYIETYKGKLFFK | failed
MKNLKRRVAVVTALALVAALTYVLWPRSESVHVTAYFPRTVGIYPGSDVRVLGVRIGEVEKITPEGDRVRVELKYDEGRRVPADSKAAIINSSVVSDRYVQLLPVYRKGPVLRNGAVIPESRTAVPVELDRVFGSLHTTADALGPQGANKDGSLSRLLGVSADNLDGQGENLNRTVEDLSQAVTTLSDGRKDLFGTVRNLQVFTAALSADDKSVRSFNTGLAEVAGQLAGERKDLADALKNLGTALGDVSAFVKNNKRSLNSNVKGLSKVTKVLVTQRAALAELLEVAPTGLSNLNNAYNPSAGTLDTRNNAQQAQDPAALMCSVLKTTGDEGGKNPDCKELKKLFDSLPKVPQGSAVTGTVDRTLGGILGASA | failed
MKNLTSIRPNTSRPARLAALKQSFQDWNNTSDVMARLARRLSTTLSLEAQLSILAEEMTDMVPFDSLNYRHRIARQDFIFSTGMGGPHRCEYRLSLEGHQYGTLTLHRRQRFSEEELTGIEMMLSGAICHIRNACQFIAIEQTALTDSLTGIGNKRALDEALQRASAMADRHGAPWSLILCDLDHFKLINDNHGHVVGDHILARTAEKLEQALRNSDTVYRFGGEEFAILLPHTNEQEARDVADRIRGAIESIRVDGGETPLTVTASCGVAMHLTDEQPEQWLARADEALYRAKAAGRNCTRVFASIS | failed
